In the nanobody polyreactivity screen of Harvey et al. (2022):

assay: yeast display, Sf9 membrane polyspecificity reagent, FACS + sequencing; frameworks hold sequencing errors
In short: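 Polyreactivity labels are assigned by the sorting gate from which each nanobody was recovered. The gates were low and high (top ~1%), set on anti-HA fluorescence for expression and streptavidin fluorescence for reagent binding. Before sorting, galactose-induced (36–48 hours) yeast display cells were stained for 1 hour at 4 °C with 10% biotinylated, detergent-solubilized Sf9 membrane reagent.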

Q: For “QVQLVESGGGIVQEAGSLSLSCAASRLTFTTYNMGWSRPAPGKERELVAALSSRGGSTYYADSVKGRFTISRDNAKNTVYLEKNSLKPEDTAVDYCNAPRPHRMDWGQGTQVTVSS”, which “polyreactivity (PSR sort gate)” value is on record?
A: high polyreactivity

Q: For “QVQLVESGGGIVQPGGRLRLSCAASGSILYGYAMGWYRQAPGKERELVAVITSGGSTNYADTVKGRFTISRDNAKNTVYLQMNSLKPEDTAVYYCAADPYSVYGGDYWGQGTQVTVSS”, which “polyreactivity (PSR sort gate)” value is on record?
A: low polyreactivity

Q: With “QVQLVESGGGIVQSGGSLGLSCAASGYTFRTNVMGWYRQAPGKERELVATINWRGGSTYYADSVKGRFTISRDTAKNTVYLQMNSLKPEDTAVYYCAKTYSYYRTMDYWGQGTQVTGSS” as the sequence, how does the “polyreactivity (PSR sort gate)” value read?
A: low polyreactivity

Q: For “QVQLVESGGGKVQAGGSLRLICAASGSTFTYNTMGWYRQAPGKERELVAAISSGGSTYYADSVKGRFTISRDNAKNTVYLQLNSLNPVDTAVYYCAATAQKYSRYGSRYYYWGQGTQVTVSS”, which “polyreactivity (PSR sort gate)” value is on record?
A: high polyreactivity

Q: With “QVQLVESGGGLAQAGGSLRLSCAASGNIFRINGMGWYRQAPGKERELVASITRSGSTYYADSVKGRFTISRDNAKNTVYLQMNSLKPEDTAVYFCAADSRRYGVRFDYWGQGTQVTVSS” as the sequence, how does the “polyreactivity (PSR sort gate)” value read?
A: low polyreactivity

Q: Which “polyreactivity (PSR sort gate)” value does the source give for “QVQLVESGGGLAQAGGSLRLSCAASGRTFRRYAMGWYRQAPGKEREMVAAITSGGDTYYADSVKGRFTISRDNAKNTVYLQMNSLKPEDTAVYYCNAASVTRRTGIRAVDFDYWGQGTQVTVSS” here?
A: high polyreactivity

Q: Which “polyreactivity (PSR sort gate)” value does the source give for “QVQLVESGGGLDHAGGPLRLSCAASGTIFAYYNMGWYRQPPGKERELVAGISKRGGNTYYADSVKGRFTISRDNAKNTVYLQMNSLKPEDTAVYYCNKRYSANTRGYYYWGQGTQVTVSS” here?
A: high polyreactivity

Q: Which “polyreactivity (PSR sort gate)” value does the source give for “QVQLVESGGGLDQAGGRLPLTWAASGFTFWKYAMGLYRQAPGKERELVAANSVSGGRTYYADSVKGRFTISRDNAKNTVSLQMNRLKPEDTAVYFCNATPWRPYVGGEYWGQGTQVTVSS” here?
A: high polyreactivity

Q: Which “polyreactivity (PSR sort gate)” value does the source give for “QVQLVESGGGLDQAGGRLRLSCAASGRTFIVFAMGWYRQAPGKESELVAGITRGSTNYADSVKGRFTISRDNAKNTVYLQMNSLKPEDTEVYYCATEVYIWPWGTVYAFEYDYWGQGTQVTVSS” here?
A: high polyreactivity

Q: Which “polyreactivity (PSR sort gate)” value does the source give for “QVQLVESGGGLDQAGGRLRLSSAASGYTFRNYAKGLYRQATGQERELVAAITSSTSSTYYADSVKGRFTISRDNAKNTVYLQMNSLKPEDTAVYYCNRVWSPYMDYWGQGTQVTVSS” here?
A: high polyreactivity

Q: Which “polyreactivity (PSR sort gate)” value does the source give for “QVQLVESGGGLDQAGGSLPLSCAASGSTFPGNAMGWYSQARGKERELVARINDGADTNYADSVKGRFTISRDNAKNTVYLQMNSLKPEDTAVYYCAADKRGTVYLSSFWMDYWGQGTQVTVSS” here?
A: low polyreactivity

Q: Which “polyreactivity (PSR sort gate)” value does the source give for “QVQLVESGGGLDQAGGSLRLICAASGRIFDVNAMGWYRQAPGKERELVAAISDSGGSTYYADSVKGRFTISRDNAKNTVYLQMNSLKPEDTAVYYCNANTPSLKRSTFNYWGQGTQVTVSS” here?
A: low polyreactivity

Q: With “QVQLVESGGGLDQAGGSLRLICAASGSTFISNVMGWYRPAPGKERELVAAITRSSGRTYYADSVKGRFTISRDNAKNTVYLQMNSLKPEDTAVYYCAARPRGRGVDYWGQGTQVTVSS” as the sequence, how does the “polyreactivity (PSR sort gate)” value read?
A: high polyreactivity

Q: Which “polyreactivity (PSR sort gate)” value does the source give for “QVQLVESGGGLDQAGGSLRLICAASVRTFFVNAMGRYRQAPGKERELVATITFSGDSTYYADSVKGRFTISRDNAKNTVYLQMNSLKPADTAVYYCAAYQGQKGYDYWGQGTQVTVSS” here?
A: high polyreactivity

Q: With “QVQLVESGGGLDQAGGSLRLRCAASGIIFDYNGMGWYRQAPGKERELVAVISFSGSGTYYADSVKGRFTISRDNAKNTVYLHMNSLKPEDTAVYYCAADTGPYFEYEYWGQGTQVTVSS” as the sequence, how does the “polyreactivity (PSR sort gate)” value read?
A: low polyreactivity

Q: For “QVQLVESGGGLDQAGGSLRLSCAAAGSIFDYYAMGSYRQAPGKERELVAAISWSGGSTYFADSVKGRFTISRDNAKNTVYLQMNSLKPEDTAVYYCAARGFWGQGTQVTVSS”, which “polyreactivity (PSR sort gate)” value is on record?
A: low polyreactivity

Q: With “QVQLVESGGGLDQAGGSLRLSCAASASIFWGYDMGWYRQAPGKEREFVARISYSGGSTSYAESVKGRFTISRDNAKNTVYLQMNSLKPEDTAVYYCAADEGVFWWTYPYDSWGQGTQVTVSS” as the sequence, how does the “polyreactivity (PSR sort gate)” value read?
A: low polyreactivity

Q: For “QVQLVESGGGLDQAGGSLRLSCAASASTFYANAMGWYRQSPGKEREFVAAIDWSGATTYYADSVKGRFTISRDNAMNTVYLQMNSLKPEDTAVYYCAAEVYFLATGTWYDYWGLGTQVTVSS”, which “polyreactivity (PSR sort gate)” value is on record?
A: high polyreactivity

Q: Which “polyreactivity (PSR sort gate)” value does the source give for “QVQLVESGGGLDQAGGSLRLSCAASGAIFPIYAMGWYRQAPGKERELVAAINRSGGSTYYADSVKGRFTISRDTAKNTVYLQMNSLKPEDSAVYYCNADYGYHNQLFWGYYGWSSDHWGQGTQVTVSS” here?
A: low polyreactivity

Q: With “QVQLVESGGGLDQAGGSLRLSCAASGFIFKYYVMGWYRQAPGKERELVAAISLSDARTNYADSVKGRFTISRDNAKNTVYLQMHSLKPVDTAFYYCAAKSHYYTSGHRHYDYWGQGTQVTVSS” as the sequence, how does the “polyreactivity (PSR sort gate)” value read?
A: high polyreactivity

Q: For “QVQLVESGGGLDQAGGSLRLSCAASGFIFNNYAMGSYRQAPGKERELVAAITWSGGGTYYADSVKGRFTISRDNAKNTVYLQMNSLKPEDTAVYYCADYYPAYRDEYWGQGTQVTVSS”, which “polyreactivity (PSR sort gate)” value is on record?
A: high polyreactivity

Q: Which “polyreactivity (PSR sort gate)” value does the source give for “QVQLVESGGGLDQAGGSLRLSCAASGFIFPAYAMGWYRQAPGKERELVAAITTRGGSTYYADSVKGRFTISRDNAKNTVYLQMNSLKPEDTAVYYCAAYAVWYRYYYWGQGTQVTVSS” here?
A: low polyreactivity

Q: For “QVQLVESGGGLDQAGGSLRLSCAASGFIFSYYTMGWYRHAPGKERELVAAIRSSGGSTYADSVKGRFTISRDNAKNTVYLQMNSLKPEDTAVYYCAAESYYPAGIRGYWGQGTQVTVSS”, which “polyreactivity (PSR sort gate)” value is on record?
A: high polyreactivity

Q: For “QVQLVESGGGLDQAGGSLRLSCAASGFIFVYNVMGWYRQAPGKEREFVATITWRGVTTYYADSVKGRFTISRDNAKNTVYLQMNSLKPEDTAVYYCAVTVAYSYPRRSHYYWGQGTQVTVSS”, which “polyreactivity (PSR sort gate)” value is on record?
A: low polyreactivity

Q: Which “polyreactivity (PSR sort gate)” value does the source give for “QVQLVESGGGLDQAGGSLRLSCAASGFIFYQNAMGWYKQAPGKERELFAAISTTGSRTYYADSVKGRFTISRDNPKNTVYLQMNRLKPVDTAVYYCATPLQQEGDWGQGTQVTVSS” here?
A: high polyreactivity

Q: With “QVQLVESGGGLDQAGGSLRLSCAASGFILDTYGMGWYRQATGTERELVAAISQSDVSTYYADSVKGRFTISRDNAKNTVYLQMNSLKPEDTAVYYCAAAHLSYRRRYESWGQGTQVTVSS” as the sequence, how does the “polyreactivity (PSR sort gate)” value read?
A: low polyreactivity

Q: For “QVQLVESGGGLDQAGGSLRLSCAASGGIFDDYAKGRYRQAPRKERELVAAISSSGGSTYYADSVKGRFTISLDNAKNTVYLQMNSLKPEYTAVYLCNADSRGSFGYWGQGTQVTVSS”, which “polyreactivity (PSR sort gate)” value is on record?
A: high polyreactivity

Q: With “QVQLVESGGGLDQAGGSLRLSCAASGIIFGTNAMGWYIQAPGKESELVAAITWSGGNTTYADSVKGRFTISRDNAKNTVYLQMNSLKPEDTAVYYCAADFTRAGDYDYWGQGTQVTVSS” as the sequence, how does the “polyreactivity (PSR sort gate)” value read?
A: low polyreactivity

Q: Which “polyreactivity (PSR sort gate)” value does the source give for “QVQLVESGGGLDQAGGSLRLSCAASGIIFPVYARGGYRQAPGKERELVAAISSVGSTNYADSVKGRFTISRDNAKNTVYLQMNSLKPEDTAVYYCAVDWAQEDGYWGQGPQVTVSS” here?
A: low polyreactivity

Q: Which “polyreactivity (PSR sort gate)” value does the source give for “QVQLVESGGGLDQAGGSLRLSCAASGIIFSLYAMGSYRQAPGKERELVAAISASDGDTYYADSVKGRFTISRDNAKNTVYLQMNSLKPEDTAVYYCAADATYYLGYEAEYYYWGQGTQVTVSS” here?
A: low polyreactivity

Q: Which “polyreactivity (PSR sort gate)” value does the source give for “QVQLVESGGGLDQAGGSLRLSCAASGIIFWEYAMGWYRQAPGKERELVAAINARGTRTYYADSVKGRFTISRDNAKNTVYLQMNSLKPEDTAVYYCAADRYGWTRYDSWGQGTQVTVSS” here?
A: high polyreactivity

Q: Which “polyreactivity (PSR sort gate)” value does the source give for “QVQLVESGGGLDQAGGSLRLSCAASGIIPYYYVMGWYRQAPGKERELVAAINRSGTSTYYADSVKGRFTISRDNAKNTVYLQMNSLKPEDTAVYYCAAERYWSGGVFDYDYWGQGTQVTVSS” here?
A: high polyreactivity

Q: With “QVQLVESGGGLDQAGGSLRLSCAASGITFKSNAMGWYRQAPGKESELVAAISRRASSTYYADSVKGRFTISRDNAKHTVYLQMNSLKPEDTAVYYCNAVLPVYRTNMDYWGQGTQVTVSS” as the sequence, how does the “polyreactivity (PSR sort gate)” value read?
A: high polyreactivity

Q: With “QVQLVESGGGLDQAGGSLRLSCAASGITFKSYAMGWYRQAPGKERELVAAITYRSGSTYYADSVKGRFTISRDNAKNTVYLQMNSLKPEDTAVYYCAVGGKFQIQTYYQRYNYWGQGTQVTVSS” as the sequence, how does the “polyreactivity (PSR sort gate)” value read?
A: high polyreactivity

Q: Which “polyreactivity (PSR sort gate)” value does the source give for “QVQLVESGGGLDQAGGSLRLSCAASGITFQWYTMGWYIQAPGKERDLVATISSGGSTNYADSVKGRFTISRDNAKNTVYLQMKSLKPEDTAVYYCAKQPTVYHHYGLGYWGQGTQVTVSS” here?
A: low polyreactivity

Q: Which “polyreactivity (PSR sort gate)” value does the source give for “QVQLVESGGGLDQAGGSLRLSCAASGITFSTYAMGWYRQAPGKEREFVAAISASGGTTYYADSVKGRFTISRDNAKNTVYLQMNSLKPEDTAVYYCAADRFRVYLIYIWAMGYWGQGTQVTVSS” here?
A: high polyreactivity

Q: Which “polyreactivity (PSR sort gate)” value does the source give for “QVQLVESGGGLDQAGGSLRLSCAASGITFYRYVKGWYRQAPGKEREYVAAINWSTGTTNYADSVKGRFTISRDNAKNTVYFQMNILKPEDTAVYYCNARYRLRYIYSLRYDYWGQGTHVTVSS” here?
A: high polyreactivity

Q: With “QVQLVESGGGLDQAGGSLRLSCAASGLTFPTNARGWYRQAPGKEREFVAAITSRGGTTYYADSVKGRFTISRDNAKNTVYLQMNSLKPEETAVYYCGALSVTIYQYDSYGYWGQGTQVSVSS” as the sequence, how does the “polyreactivity (PSR sort gate)” value read?
A: low polyreactivity

Q: With “QVQLVESGGGLDQAGGSLRLSCAASGLTFQWNAMGWYRQAPGKERELVAGITDIGDSTYYADSVKGRFTISRDNAKHTDYLQLNSLKPEDTAVYYCNATSGYKHAWRSENGYWGQGTQVTVSS” as the sequence, how does the “polyreactivity (PSR sort gate)” value read?
A: low polyreactivity

Q: Which “polyreactivity (PSR sort gate)” value does the source give for “QVQLVESGGGLDQAGGSLRLSCAASGLTFYYYAMGWYRQAPGKERELVAAITWRGVSTYYADSVKGRFTISRDNAKNTVYLQMNSLKPEDTAVYYCAAGWTSSRYDFWGQGTQVTVSS” here?
A: high polyreactivity

Q: For “QVQLVESGGGLDQAGGSLRLSCAASGMTFHPYAMGWYRQAPGKERELVAAISSRGTSTYYADSVKGRFTISRDIAKNTVYLQMNSLKPEDTAVYYCAAEVITIGLYRYGYWGQGTQVTVSS”, which “polyreactivity (PSR sort gate)” value is on record?
A: high polyreactivity

Q: With “QVQLVESGGGLDQAGGSLRLSCAASGNTSPVNAMGWYRQAPGKERELVAAITQSGGSTYYADSVKGRFTISRDNAKNTVYLQMNSLKPEDTAVYYCAAPDAGWRDGGDYWGQGTQVTVSS” as the sequence, how does the “polyreactivity (PSR sort gate)” value read?
A: low polyreactivity

Q: For “QVQLVESGGGLDQAGGSLRLSCAASGRIFIKNTMGWYRQAPGKERELVAAITSSGSSTYYADSVKGRFTISRDNAKNTVYLKMNSLKPEDTAVYYCNALTWDHSRTGVDYWGQGTQVTVSS”, which “polyreactivity (PSR sort gate)” value is on record?
A: low polyreactivity
